# Experimental data published in publication PMC4864540, “Isolation and Characterization of a Broad Spectrum Bacteriocin from Bacillus amyloliquefaciens RX7” (BioMed Research International, 2016).
# Legend:
# [1] = tested on: L. monocytogenes ATCC 19114; assay: pH stability of antimicrobial activity; format: physicochemical, Listeria monocytogenes; settings: for Residual activity (%): 2 h at 37°C, residual activity against L. monocytogenes ATCC 19114
# Experimental: (§1) To evaluate pH stability, the pH of crude bacteriocin solution was adjusted with 1 N HCl and 1 N NaOH and readjusted to pH 7 after incubation for 2 h at 37°C. To evaluate thermal stability, the crude bacteriocin solution was incubated at 4, 37, 50, 80, and 100°C for 15–30 minutes. All samples were cooled to room temperature before activity assays. To analyze sensitivity to various enzymes, the crude bacteriocin solution was treated at 37°C for 2 h with 10 mg/mL (final concentration) of the following enzymes: α-amylase, α-chymotrypsin, lipase, proteinase-K, pepsin, or trypsin. All enzymes used were from Sigma (USA) and Takara (Japan). The samples were then boiled for 2 min to denature the enzymes and cooled to room temperature. Samples were exposed to various organic solvents at a final concentration of 10% (v/v) to explore their effects on bacteriocin activity. After incubation for 2 h at 37°C, the residual activity was recorded. All treated samples were tested for residual activity against L. monocytogenes ATCC 19114, as described above.
# α-amylase = assay: Effect of enzyme treatment on antimicrobial activity; format: in vitro ADME; settings: α-Amylase 10 mg/mL, 37°C, 2 h, then boiled 2 min; residual antimicrobial activity vs before treatment, against L. monocytogenes ATCC 19114
# Experimental: as §1
# α-chymotrypsin = biological target: T1, α-chymotrypsin (Bos taurus, UniProt P00766); assay: as above; format: in vitro ADME; settings: α-Chymotrypsin 10 mg/mL, 37°C, 2 h, then boiled 2 min; residual antimicrobial activity vs before treatment, against L. monocytogenes ATCC 19114
# T1 construct: purchased Sigma (USA) and Takara (Japan)
# Experimental: as §1
# proteinase-K = biological target: T2, proteinase-K (Parengyodontium album, UniProt P06873); assay: as above; format: in vitro ADME; settings: Proteinase-K 10 mg/mL, 37°C, 2 h, then boiled 2 min; residual antimicrobial activity vs before treatment, against L. monocytogenes ATCC 19114
# T2 construct: purchased Sigma (USA) and Takara (Japan)
# T2 sequence (P06873 106-384): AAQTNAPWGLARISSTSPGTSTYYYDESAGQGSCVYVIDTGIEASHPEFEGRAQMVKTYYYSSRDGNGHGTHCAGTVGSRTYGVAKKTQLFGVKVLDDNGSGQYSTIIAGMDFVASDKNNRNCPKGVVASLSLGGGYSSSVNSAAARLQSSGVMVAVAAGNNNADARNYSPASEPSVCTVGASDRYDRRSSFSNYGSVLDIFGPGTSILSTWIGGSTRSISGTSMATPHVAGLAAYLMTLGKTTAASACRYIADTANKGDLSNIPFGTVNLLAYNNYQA
# Experimental: as §1
# trypsin = assay: as above; format: in vitro ADME; settings: Trypsin 10 mg/mL, 37°C, 2 h, then boiled 2 min; residual antimicrobial activity vs before treatment, against L. monocytogenes ATCC 19114
# Experimental: as §1
# pepsin = biological target: T3, pepsin (Sus scrofa, UniProt P00791); assay: as above; format: in vitro ADME; settings: Pepsin 10 mg/mL, 37°C, 2 h, then boiled 2 min; residual antimicrobial activity vs before treatment, against L. monocytogenes ATCC 19114
# T3 construct: purchased Sigma (USA) and Takara (Japan)
# T3 sequence (P00791 60-385): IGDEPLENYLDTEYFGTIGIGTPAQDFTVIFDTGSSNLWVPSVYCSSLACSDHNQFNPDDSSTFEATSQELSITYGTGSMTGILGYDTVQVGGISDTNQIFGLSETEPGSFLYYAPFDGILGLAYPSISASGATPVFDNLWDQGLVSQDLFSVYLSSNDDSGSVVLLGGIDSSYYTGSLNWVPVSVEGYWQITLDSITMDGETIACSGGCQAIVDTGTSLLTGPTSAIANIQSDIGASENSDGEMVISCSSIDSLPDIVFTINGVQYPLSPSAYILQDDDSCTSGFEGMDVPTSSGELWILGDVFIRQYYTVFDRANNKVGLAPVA
# Experimental: as §1
# lipase = assay: as above; format: in vitro ADME; settings: Lipase 10 mg/mL, 37°C, 2 h, then boiled 2 min; residual antimicrobial activity vs before treatment, against L. monocytogenes ATCC 19114
# Experimental: as §1
# [2] = tested on: L. monocytogenes ATCC 19114; assay: Thermal stability of antimicrobial activity; format: physicochemical, Listeria monocytogenes; settings: cooled to room temperature, residual activity vs before treatment, against L. monocytogenes ATCC 19114
# Experimental: as §1
# Escherichia coli K88 = assay: Agar well diffusion assay; format: cell-based; settings: cell-free supernatant, medium LB
# Experimental: (§2) Soil samples were collected from a farm in Cheonan city, Korea. They were mixed with sterile water (1 : 10, w/v), homogenized, and heated at 50°C for 60 min in a water bath. One mL of this suspension was inoculated into 100 mL of tryptic soy broth (Difco, USA) and incubated at 50°C for 24 h, after which microbial growth was monitored based on changes in turbidity of the cultures. Aliquots of the cultures were inoculated onto TSB plates, incubated at 30°C, and single colonies were isolated and screened for antimicrobial activity. The antimicrobial activity was performed according to Ramachandran et al. with modifications. It was expressed as the diameter of the inhibition zones around the wells using agar well diffusion assays with Listeria monocytogenes ATCC 19114 as the indicator strain.
# (§3) Antimicrobial activity was detected using the agar well diffusion assay and tested against all indicator strains (Table 1) grown in their respective media, as indicated (Difco, USA). An aliquot of culture was centrifugated at 6,000 g for 15 min at 4°C (Mega 21R, Hanil Co., Republic of Korea), filtered using 0.45 μm pore-size cellulose acetate syringe filters (Advantec Co., Japan) to remove cells, then applied to wells on agar plates. Experiments were done in no less than five individual trials having no less than three replications.
# (§4) The plates were incubated at the optimal temperature of the test organism. The bacteriocin titer was determined using the serial twofold dilution method. Activity was defined as the reciprocal of the dilution after the last serial dilution giving a zone of inhibition and was expressed as activity units (AU) per milliliter. All measurements were done in triplicate and the means are shown as the results.
# [3] = tested on: Candida albicans KCTC 7122; assay: Agar well diffusion assay; format: cell-based; settings: cell-free supernatant, medium PDA
# Experimental: as §2, §3, §4
# [4] = tested on: Lactobacillus johnsonii PF01 (our isolate); assay: Agar well diffusion assay; format: cell-based; settings: cell-free supernatant, medium MRS
# Experimental: as §2, §3, §4
# [5] = tested on: Enterococcus faecalis (VRE) CCARM 0011; assay: Agar well diffusion assay; format: cell-based; settings: cell-free supernatant, medium NB
# Experimental: as §2, §3, §4
# [6] = tested on: Salmonella typhimurium KCCM 40253; assay: Agar well diffusion assay; format: cell-based; settings: cell-free supernatant, medium NB
# Experimental: as §2, §3, §4
# [7] = tested on: Staphylococcus aureus subsp. aureus (MRSA) KCCM 40510; assay: Agar well diffusion assay; format: cell-based; settings: cell-free supernatant, medium NB
# Experimental: as §2, §3, §4
# [8] = tested on: Lactobacillus salivarius CPM7 (our isolate); assay: Agar well diffusion assay; format: cell-based; settings: cell-free supernatant, medium MRS
# Experimental: as §2, §3, §4
# [9] = tested on: Salmonella gallinarum KVCC-BA0700722; assay: Agar well diffusion assay; format: cell-based; settings: cell-free supernatant, medium NB
# Experimental: as §2, §3, §4
# [10] = tested on: Streptococcus mutans ATCC 25175; assay: Agar well diffusion assay; format: cell-based; settings: cell-free supernatant, medium BHI
# Experimental: as §2, §3, §4
# [11] = tested on: Salmonella enteritidis KVCC-BA0700654; assay: Agar well diffusion assay; format: cell-based; settings: cell-free supernatant, medium NB
# Experimental: as §2, §3, §4
# [12] = tested on: Lactobacillus acidophilus KCCM 32820; assay: Agar well diffusion assay; format: cell-based; settings: cell-free supernatant, medium MRS
# Experimental: as §2, §3, §4
# [13] = tested on: Lactobacillus plantarum KCCM 11322; assay: Agar well diffusion assay; format: cell-based; settings: cell-free supernatant, medium MRS
# Experimental: as §2, §3, §4
substance,measurement,setting,value
"NH2-X-Ala-Trp-Tyr-Asp-Ile-Arg-Lys-Leu-Gly-Asn-Lys-Gly-Ala [RX7 bacteriocin, Bacteriocin of approximately 5 kDa produced by Bacillus amyloliquefaciens RX7; homologous to lantibiotic haloduracin A1]",pH range in which full activity was observed,"[1]; 2 h at 37°C at the given pH, readjusted to pH 7, activity against L. monocytogenes ATCC 19114",3–8
same,Residual activity (%),"[1]; pH 1 (1 N HCl/1 N NaOH), readjusted to pH 7",80%
same,Residual activity (%),"[1]; pH 2 (1 N HCl/1 N NaOH), readjusted to pH 7",90%
same,Residual activity (%),"[1]; pH 3 (1 N HCl/1 N NaOH), readjusted to pH 7",100%
same,Residual activity (%),"[1]; pH 4 (1 N HCl/1 N NaOH), readjusted to pH 7",100%
same,Residual activity (%),"[1]; pH 5 (1 N HCl/1 N NaOH), readjusted to pH 7",100%
same,Residual activity (%),"[1]; pH 6 (1 N HCl/1 N NaOH), readjusted to pH 7",100%
same,Residual activity (%),[1]; pH 7 (1 N HCl/1 N NaOH),100%
same,Residual activity (%),"[1]; pH 8 (1 N HCl/1 N NaOH), readjusted to pH 7",100%
same,Residual activity (%),"[1]; pH 9 (1 N HCl/1 N NaOH), readjusted to pH 7",90%
same,Residual activity (%),"[1]; pH 10 (1 N HCl/1 N NaOH), readjusted to pH 7",80%
same,Residual activity (%),α-amylase,100%
same,Residual activity (%),α-chymotrypsin,0%
same,Residual activity (%),proteinase-K,0%
same,Residual activity (%),trypsin,0%
same,Residual activity (%),pepsin,100%
same,Residual activity (%),lipase,100%
same,Residual activity (%),[2]; heat 4°C/30 min,100%
same,Residual activity (%),[2]; heat 37°C/30 min,100%
same,Residual activity (%),[2]; heat 50°C/30 min,100%
same,Residual activity (%),[2]; heat 80°C/30 min,100%
same,Residual activity (%),[2]; heat 100°C/30 min,80%
same,Residual activity (%),[2]; heat 121°C/15 min,20%
same,Inhibition zone (mm),Escherichia coli K88,++ (less than 20 mm)
same,Inhibition zone (mm),[3],++ (less than 20 mm)
same,Inhibition zone (mm),[4],+ (less than 10 mm)
same,Inhibition zone (mm),[5],++ (less than 20 mm)
same,Inhibition zone (mm),[6],++ (less than 20 mm)
same,Inhibition zone (mm),[7],+ (less than 10 mm)
same,Inhibition zone (mm),[8],+ (less than 10 mm)
same,Inhibition zone (mm),[9],++ (less than 20 mm)
same,Inhibition zone (mm),[10],+ (less than 10 mm)
same,Inhibition zone (mm),[11],++ (less than 20 mm)
same,Inhibition zone (mm),[12],+ (less than 10 mm)
same,Inhibition zone (mm),[13],+ (less than 10 mm)
